The record followed here is publication PMC7895384.

The target of assay [1] is Six4-HA (HA-tagged Six4, Six4-3xHA) (Drosophila). In words: co-IP; Six4-HA, Myc-Erm and Flag-PntP1 all three co-expressed in S2 cells; IP with anti-HA or anti-Flag antibody; 150mM or 1200mM NaCl; % co-IP quantified from band intensities, normalized by the IPed protein, n = 3 (S7F Fig).
For assay [2] the target is unchanged. In words: co-IP; two of the three tagged proteins co-expressed in S2 cells; graded concentrations (150mM to 1200mM) of NaCl in the 1% NP-40 lysis buffer (S7C-E Fig; lanes with two proteins of S7F Fig, % co-IP quantified from band intensities, n = 3).

In assay [1], “Myc-Erm (Myc-tagged Earmuff) (from UniProt Q9VQ56 1-611) (natural protein)” came in with a % co-IPed Myc-Erm with the anti-HA antibody (1200mM NaCl, Flag-PntP1 co-expressed) of 13.6%. In assay [2], the % co-IPed Myc-Erm with the anti-HA antibody (1200mM NaCl, without Flag-PntP1) came to 6.7%.
